Assay results as given in patent US7432244 (dated 2008).
Bridge positions count the residues as written; N and C are the ends. Ends that are not written are not given here.

What was measured:
IGF-1 [1] = target: T1, IGF-1 (human, UniProt P05019); experiment: competition phage ELISA
IGF-1 [2] = target: T1, IGF-1; experiment: competition, 125I-IGF-1 binding to MCF-7 cells, 37C
IGF-1 [3] = target: T1, IGF-1; experiment: competition, IGF-1 phage vs IGFBP-1
IGF-1 [4] = target: T1, IGF-1; experiment: competition, IGF-1 phage vs IGFBP-3

T1 sequence (P05019 49-118): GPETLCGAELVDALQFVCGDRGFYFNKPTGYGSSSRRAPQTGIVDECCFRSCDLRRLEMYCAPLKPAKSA

| IC50 (IGF-1 [1]) [µM] | Binder | other results |
| --- | --- | --- |
| 0.319 | WRCVDDLGGFQYCWA [F2-H] | – |
| 1.03 | VTCAADALGFLYCWE [F2-I] | – |
| 0.468 | HDCFASVEALRRCMY [F1-D] | – |
| 24.6 | VRCAYDAGGSRYCWE [F2-B] | – |
| – | FECLTSVEALRGCMYG (disulfide 3-13 (inferred)) [F1-3] | IC50 (IGF-1 [2]): 45.7 µM; IC50 (IGF-1 [3]): 11.7 µM; IC50 (IGF-1 [4]): 12.8 µM |
| 249 | VRCAWDLGGRAYCWA [F2-D] | – |
| – | RNCFESVAALRRCMYG (disulfide 3-13 (inferred)) [F1-1] | IC50 (IGF-1 [2]): 5.12 µM; IC50 (IGF-1 [3]): 1.4 µM; IC50 (IGF-1 [4]): 2.93 µM |
| 1.45 | YRCATDLAGFSYCWA [F2-K] | – |
| 209 | FRCAWELGWLYVLGL [F2-F] | – |
| – | MDCLASVEALKWCMYG (disulfide 3-13 (inferred)) [F1-2] | IC50 (IGF-1 [2]): 15.3 µM; IC50 (IGF-1 [3]): 15.5 µM; IC50 (IGF-1 [4]): 9.2 µM |
| 0.968 | SDCFESVEALRACMY [F1-G] | – |
| 0.108 | RNCFESVAALRRCMY [F1-C] | – |
| 0.711 | SDCFGSVEALKMCMY [F1-E] | – |
| 10000 | VKCARDLSGFVYCWA [F2-C] | – |
| 1.04 | WRCAQDAGGWTYCWA [F2-M] | – |
| 0.554 | LGCASDLAGFWYCWA [F2-E] | – |
| 2.12 | LRCAEDLGGYFYCWA [F2-J] | – |
| 0.286 | FECLTSVEALRGCMY [F1-F] | – |
| 0.986 | ASCVADAGGGGYCWD [F2-G] | – |
| 4.36 | ARCARDAGGFYYCWA [F2-L] | – |
| 0.147 | MDCLASVEALKWCMY [F1-H] | – |
| 0.401 | HPCLESVGALKACMY [F1-A] | – |
| 1.18 | VRCVADAGGFLYCWA [F2-N] | – |
| 1.33 | GGCASDLAGFRYCWE [F2-A] | – |
| 0.301 | FGCYESVAALRTCMY [F1-B] | – |
